Test results reported in patent publication US7279304B2, “Methods for preparation of macrocyclic molecules and macrocyclic molecules prepared thereby” (President and Fellows of Harvard College, priority 2000, dated 2007).

Key:
Assay in all cases: purified protein, by the assay type
Format in all cases: biochemical
[1] = substrate: CC(=O)NCCSC(=O)[C@H](CC(C)C)NC(=O)[C@H](CCCN)NC(=O)[C@@H](NC(=O)[C@H](C)NC(=O)[C@H](CCC(N)=O)NC(=O)[C@H](CC(N)=O)NC(=O)[C@@H](Cc1ccccc1)NC(=O)[C@H](Cc1ccccc1)NC(=O)[C@@H]1CCCN1C(=O)[C@H](N)Cc1ccccc1)C(C)C; conditions: other: Table 1; macrocyclization of peptide-SNAC substrate; 25 mM MOPS, pH 7.0
Procedure: (§1) Macrocyclization reactions were carried out in 25 mM MOPS, pH 7.0 in a total volume of 400 μL. Reactions were initiated by addition of TycC TE and quenched at various time points by the addition of 25 μL 1.7% TFA/water, flash frozen in liquid nitrogen and stored at −80° C. (for Ex. 13, reactions were quenched by the addition of sodium phosphate, pH 5.3, to 100 mM). The reactions were then thawed, 85 μL acetonitrile added, and analyzed by analytical HPLC with monitoring at 220 nm (20% to 80% acetonitrile in 0.1% TFA/water, or in 25 mM potassium phosphate, pH 5.3 for Ex. 13, over 35 minutes, Vydac protein and peptide C18 column). Initial rates were calculated using 1 minute time points. Peptide-SNAC and reaction product concentrations were determined for all Tyr-containing peptides based on the estimated extinction coefficient ε (280 nm)=1,280 M^−1 cm^−1, which agrees with the experimentally determined ε (280 nm) of Ex. 1. For peptide-SNACs not containing Tyr, ε (220 nm) was determined experimentally, and concentrations of corresponding cyclic products determined by assuming equal ε (220 nm) values for the peptide-SNAC and cyclic product.

[2] = substrate: CC(=O)NCCSC(=O)[C@H](C)NC(=O)[C@H](CCCN)NC(=O)[C@@H](NC(=O)[C@H](Cc1ccc(O)cc1)NC(=O)[C@H](CCC(N)=O)NC(=O)[C@H](CC(N)=O)NC(=O)[C@@H](Cc1ccccc1)NC(=O)[C@H](Cc1ccccc1)NC(=O)[C@@H]1CCCN1C(=O)[C@H](N)Cc1ccccc1)C(C)C; conditions: other: Table 1; macrocyclization of peptide-SNAC substrate; 25 mM MOPS, pH 7.0
Procedure: as §1

[3] = substrate: CC(=O)NCCSC(=O)[C@H](CC(C)C)NC(=O)[C@H](CCCN)NC(=O)[C@@H](NC(=O)[C@H](Cc1ccc(O)cc1)NC(=O)[C@H](CCC(N)=O)NC(=O)[C@H](CC(N)=O)NC(=O)[C@@H](C)NC(=O)[C@H](Cc1ccccc1)NC(=O)[C@@H]1CCCN1C(=O)[C@H](N)Cc1ccccc1)C(C)C; conditions: other: Table 1; macrocyclization of peptide-SNAC substrate; 25 mM MOPS, pH 7.0
Procedure: as §1

[4] = substrate: CC(=O)NCCSC(=O)[C@H](CC(C)C)NC(=O)[C@H](CCCN)NC(=O)[C@@H](NC(=O)[C@H](Cc1ccc(O)cc1)NC(=O)[C@H](CCC(N)=O)NC(=O)[C@H](C)NC(=O)[C@H](CC(N)=O)NC(=O)[C@@H](Cc1ccccc1)NC(=O)[C@H](Cc1ccccc1)NC(=O)[C@@H]1CCCN1C(=O)[C@H](N)Cc1ccccc1)C(C)C; conditions: other: Table 1; macrocyclization of peptide-SNAC substrate; 25 mM MOPS, pH 7.0
Procedure: as §1

[5] = substrate: CC(=O)NCCSC(=O)[C@H](CC(C)C)NC(=O)[C@H](CCCN)NC(=O)[C@H](C)NC(=O)[C@H](Cc1ccc(O)cc1)NC(=O)[C@H](CCC(N)=O)NC(=O)[C@H](CC(N)=O)NC(=O)[C@@H](Cc1ccccc1)NC(=O)[C@H](Cc1ccccc1)NC(=O)[C@@H]1CCCN1C(=O)[C@H](N)Cc1ccccc1; conditions: other: Table 1; macrocyclization of peptide-SNAC substrate; 25 mM MOPS, pH 7.0
Procedure: as §1

[6] = substrate: CC(=O)NCCSC(=O)[C@H](CC(C)C)NC(=O)[C@H](CCCN)NC(=O)[C@@H](NC(=O)[C@H](Cc1ccc(O)cc1)NC(=O)[C@H](CCC(N)=O)NC(=O)[C@H](CC(N)=O)NC(=O)[C@@H](Cc1ccccc1)NC(=O)[C@H](Cc1ccccc1)NC(=O)[C@H](C)NC(=O)[C@H](N)Cc1ccccc1)C(C)C; conditions: other: Table 1; macrocyclization of peptide-SNAC substrate; 25 mM MOPS, pH 7.0
Procedure: as §1

[7] = substrate: CC(=O)NCCSC(=O)[C@H](CC(C)C)NC(=O)[C@H](CCCN)NC(=O)[C@@H]1CCCN1C(=O)[C@@H](Cc1ccccc1)NC(=O)[C@H](CC(C)C)NC(=O)[C@H](CCCN)NC(=O)[C@@H]1CCCN1C(=O)[C@H](N)Cc1ccccc1; conditions: other: Table 2; cyclization of peptide-SNAC substrates of 6-14 amino acids
Procedure: as §1

[8] = substrate: CC(=O)NCCSC(=O)[C@H](CC(C)C)NC(=O)[C@H](CCC(=O)O)NC(=O)[C@@H](NC(=O)[C@H](Cc1ccc(O)cc1)NC(=O)[C@H](CCC(N)=O)NC(=O)[C@H](CC(N)=O)NC(=O)[C@@H](Cc1ccccc1)NC(=O)[C@H](Cc1ccccc1)NC(=O)[C@@H]1CCCN1C(=O)[C@H](N)Cc1ccccc1)C(C)C; conditions: other: Table 1; macrocyclization of peptide-SNAC substrate; 25 mM MOPS, pH 7.0
Procedure: as §1

[9] = substrate: CC(=O)NCCSC(=O)[C@H](CC(C)C)NC(=O)[C@H](CCCN)NC(=O)[C@@H](NC(=O)[C@H](Cc1ccc(O)cc1)NC(=O)[C@H](CCC(N)=O)NC(=O)[C@H](C)NC(=O)[C@@H](Cc1ccccc1)NC(=O)[C@H](Cc1ccccc1)NC(=O)[C@@H]1CCCN1C(=O)[C@H](N)Cc1ccccc1)C(C)C; conditions: other: Table 1; macrocyclization of peptide-SNAC substrate; 25 mM MOPS, pH 7.0
Procedure: as §1

[10] = substrate: CC(=O)NCCSC(=O)[C@H](CC(C)C)NC(=O)[C@H](CCCN)NC(=O)[C@@H](NC(=O)[C@H](Cc1ccc(O)cc1)NC(=O)[C@H](CCC(N)=O)NC(=O)[C@H](CC(N)=O)NC(=O)[C@H](Cc1ccccc1)NC(=O)[C@@H]1CCCN1C(=O)[C@H](N)Cc1ccccc1)C(C)C; conditions: other: Table 1; macrocyclization of peptide-SNAC substrate; 25 mM MOPS, pH 7.0
Procedure: as §1

B1: TycC TE (excised TE domain protein from the tyrocidine NRPS) (Brevibacillus parabrevis) (protein)
chain: FESRYGTAILLNQETARNVFCFTPIGAQSVYYQKLAAEIQGVSLYSFDFIQDDNRMEQYIAAITAIDPSGPYTLMGYSSGGNLAFEVAKELEERGYGVTDIILFDSYWKDKAIERTVAETENDIAQLFAEIGENTEMFNMTQEDFQLYAANEFVKQSFVRKTVSYVMFHNNLVNTGMTTAAIHLIQSELEADEEAPVAAKWNESAWANATQRLLTYSGHGIHSRMLAGDYASQNASILQNILQELFILK
notes: excised TE domain protein from the tyrocidine NRPS (TycC TE); made in house
With B1 the Km [1] was 15 µM, the Km [2] was 6 µM and the Km [3] was 6 µM. For the same protein, the Km [4] was 20 µM, the Km [5] was 9 µM and the Km [6] was 3 µM. For the same protein, the Km [7] was 3 µM, the kcat [7] was 0.283 s⁻¹ and the Km [8] was 56 µM. The Km [9] was 6 µM and the Km [10] was 6 µM.
